Source: paper PMC4734655

Target: recombinant human IL-8 (interleukin-8) (human)
Assay: SPR; Biacore; IL-8 immobilised on a CM5 chip by amine coupling (Fc2), BSA on the reference cell (Fc1); soluble recombinant Mtb proteins as analytes at 2.5, 5, 10 and 20 uM; 22 °C, PBS pH 7.4 with 0.005% P20; flow 5 ul/min; one-to-one model

B1: recombinant M. tuberculosis rGlmU (His-tagged, from pHis-glmU) (enzyme)
chain: MTFPGDTAVLVLAAGPGTRMRSDTPKVLHTLAGRSMLSHVLHAIAKLAPQRLIVVLGHDHQRIAPLVGELADTLGRTIDVALQDRPLGTGHAVLCGLSALPDDYAGNVVVTSGDTPLLDADTLADLIATHRAVSAAVTVLTTTLDDPFGYGRILRTQDHEVMAIVEQTDATPSQREIREVNAGVYAFDIAALRSALSRLSSNNAQQELYLTDVIAILRSDGQTVHASHVDDSALVAGVNNRVQLAELASELNRRVVAAHQLAGVTVVDPATTWIDVDVTIGRDTVIHPGTQLLGRTQIGGRCVVGPDTTLTDVAVGDGASVVRTHGSSSSIGDGAAVGPFTYLRPGTALGADGKLGAFVEVKNSTIGTGTKVPHLTYVGDADIGEYSNIGASSVFVNYDGTSKRRTTVGSHVRTGSDTMFVAPVTIGDGAYTGAGTVVREDVPPGALAVSAGPQRNIENWVQRKRPGSPAAQASKRASEMACQQPTQPPDADQTP
Binder B1 has a Kd of 5.24 µM.

B2: recombinant M. tuberculosis rAtsG (His-tagged, from pHis-atsG) (enzyme)
chain: MTSERATGQRENLLIVHWHDLGRYLGVYHHPDVYSPRLDRLAAEGILFTRAHATAPLCTPSRGSLFTGRYPQSNGLVGLAHHGWEYRTGVQTLPQLLSESGWYSALFGMQHETSYPKRLGFDEFDVSNSYCEYVVAKAQDWLHNRVPALDGQRFLLTAGFFETHRPYPHERYRPADSAAVELPDYLPDTPEVRQDVAEFYGSIATADEAVGRLLDTLADTGLDASTWVVFVTDHGPAFPRAKSTLYDAGTGIALIIRPPTRRAMAPRVYDELFSGVDLVPTLLDLLRLEVPADVEGVSHAPALLAPDTENAAVRDHVYTAKTYHDSFDPIRAIRTKEYSYIENYAPRPLLDLPWDIQESPAGMAVAPLVKAPRPQRELYDLRADPTETNNLLAGDDSTQGVAAIAADLAVRLHDWRQRTADVIPSDFAGSRIAERYTETYLRIHRKTPTGRSAIAADRGIDEHCS
B2 showed a Kd of 6.83 µM.
